Reference: the supplement of paper PMC7877785
± gives the uncertainty stated by the source.

Test: self-splicing fitness, log relative to wild type (ln ratio); higher = more splicing; Tetrahymena group I intron in knt gene, E. coli kanamycin selection, DiMSum; sequences stand for … in CUCUCU…GGAGGGAAAAGUUAUCAGGCAUGCACCUGGUAGCUAGUCUUUAAACCAAUAGAUUGCAUCGGUUUAAAAGGCAAGACCGUCAAAUUGCGGGAAAGGGGUCAACAGCCGUUCAGUACCAAGUCUCAGGGGAAACUUUGAGAUGGCCUUGCAAAGGGUAUGGUAAUAAGCUGACGGACAUGGUCCUAACCACGCAGCCAAGUCCUAAGUCAACAGAUCUUCUGUUGAUAUGGAUGCAGUUCACAGACUAAAUGUCGGUCGGGGAAGAUGUAUUCUUCUCAUAAGAUAUAGUCGGACCUCUCCUUAAUGGGAGCUAGCGGAUGAAGUGAUGCAACACUGGAGCCGCUGGGAACUAAUUUGUAUGCGAAAGUAUAUUGAUUAGUUUUGGAGUACUCGUGGUCG
Procedure, shortened: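 A randomised library covering all eight P1ex-region intron nucleotides was built with the intron in the knt kanamycin-resistance gene on pET-22b(+) and held in E. coli BL21(DE3). Cells were grown overnight at 37°C or 30°C on LB agar, with or without 25 μg/mL kanamycin, plus 100 μg/mL carbenicillin, 50 μM IPTG and 0.2% rhamnose, and pooled colonies were amplicon-sequenced on an Illumina HiSeq 2500. DiMSum fitness is the error-weighted combination of wild-type-normalised replicate fold changes, kanamycin versus none.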

| Sequence | self-splicing fitness (ln) (37 °C) | self-splicing fitness (ln) (30 °C) |
| --- | --- | --- |
| UUGUAGCAAUAUUACGGGCC | -1.69 ± 0.38 | – |
| UCACAGCAAUAUUACGAAUG | -1.61 ± 0.14 | -1.77 ± 0.097 |
| CGUAAGCAAUAUUACGCGCG | -1.71 ± 0.23 | -2.79 ± 0.16 |
| GGGCAGCAAUAUUACGAAAU | -1.24 ± 0.22 | -1.42 ± 0.25 |
| UAUUAGCAAUAUUACGCUGC | -2.59 ± 0.49 | -2.92 ± 0.27 |
| CAGUAGCAAUAUUACGCACG | -0.303 ± 0.17 | -1.27 ± 0.11 |
| GGGCAGCAAUAUUACGUGUA | -0.515 ± 0.12 | -2.19 ± 0.15 |
| UAGUAGCAAUAUUACGUACU | -0.109 ± 0.12 | -0.816 ± 0.12 |
| CACCAGCAAUAUUACGAGCU | -3.55 ± 0.27 | -3.87 ± 0.16 |
| AGCGAGCAAUAUUACGAUCU | -0.579 ± 0.12 | -0.233 ± 0.09 |
| AGUAAGCAAUAUUACGGGUU | -2.68 ± 0.2 | -2.54 ± 0.18 |
| UACCAGCAAUAUUACGACAU | -0.566 ± 0.032 | -1.381 ± 0.012 |
| GCAUAGCAAUAUUACGGAUU | -1.29 ± 0.097 | -2.81 ± 0.11 |
| GUCAAGCAAUAUUACGGAAG | -1.68 ± 0.17 | -3.05 ± 0.15 |
| UUUUAGCAAUAUUACGAAAU | -1.72 ± 0.27 | -2.34 ± 0.34 |
| GAGCAGCAAUAUUACGAAGU | -0.867 ± 0.16 | -2.87 ± 0.21 |
| GAGUAGCAAUAUUACGCCCG | -1.03 ± 0.31 | -0.892 ± 0.21 |
| GGGGAGCAAUAUUACGUGUU | -2.29 ± 0.27 | -3.92 ± 0.35 |
| ACUAAGCAAUAUUACGAGGU | -3.37 ± 0.25 | -3 ± 0.14 |
| UUUAAGCAAUAUUACGAGCU | -0.0484 ± 0.17 | -2.94 ± 0.22 |
| CCUUAGCAAUAUUACGUUCC | -2.51 ± 0.34 | -3.14 ± 0.31 |
| UCUAAGCAAUAUUACGUUGA | -1.29 ± 0.086 | -1.71 ± 0.089 |
| GGGAAGCAAUAUUACGAACU | 1.13 ± 0.33 | -2.22 ± 0.26 |
| CGUCAGCAAUAUUACGGCUA | -0.751 ± 0.11 | -0.938 ± 0.11 |
| UAUUAGCAAUAUUACGAUGA | 0.262 ± 0.13 | -0.641 ± 0.11 |

| Sequence | self-splicing fitness (ln) (37 °C) | self-splicing fitness (ln) (30 °C) |
| --- | --- | --- |
| AUAUAGCAAUAUUACGUCUG | -0.0249 ± 0.12 | -2.35 ± 0.1 |
| UUAUAGCAAUAUUACGCUAU | -4.04 ± 0.46 | -3.51 ± 0.44 |
| AUCCAGCAAUAUUACGCAGC | -1.26 ± 0.2 | -1.43 ± 0.13 |
| ACCGAGCAAUAUUACGCUUA | -1.63 ± 0.17 | -1.56 ± 0.14 |
| CUAAAGCAAUAUUACGGUGU | -3.05 ± 0.21 | -4.65 ± 0.25 |
| UCAAAGCAAUAUUACGCCUG | -0.293 ± 0.091 | -0.562 ± 0.066 |
| UCGUAGCAAUAUUACGUUCU | -1.49 ± 0.24 | -1.6 ± 0.23 |
| ACCCAGCAAUAUUACGAUAA | -0.0251 ± 0.098 | -2.15 ± 0.091 |
| ACUCAGCAAUAUUACGGCCG | -0.609 ± 0.15 | -1.87 ± 0.13 |
| GCUAAGCAAUAUUACGGCUG | -2.03 ± 0.18 | -2.83 ± 0.15 |
| ACAGAGCAAUAUUACGCGCG | -1.47 ± 0.1 | -2.69 ± 0.098 |
| GGCAAGCAAUAUUACGGGGU | -0.776 ± 0.094 | -2.5 ± 0.099 |
| AUCAAGCAAUAUUACGCGAC | -1.58 ± 0.22 | -2.01 ± 0.23 |
| CACAAGCAAUAUUACGGGCU | -2.29 ± 0.17 | -4.15 ± 0.24 |
| CGGUAGCAAUAUUACGUAAU | – | -3.97 ± 0.47 |
| GCGCAGCAAUAUUACGAAGC | -2.37 ± 0.18 | -2.98 ± 0.25 |
| CUUGAGCAAUAUUACGAACC | -1.54 ± 0.44 | – |
| GUUUAGCAAUAUUACGCGGA | -1.82 ± 0.37 | -1.9 ± 0.24 |
| UGUCAGCAAUAUUACGUGGU | -1.96 ± 0.11 | -4.15 ± 0.18 |
| UGAAAGCAAUAUUACGGCGC | -0.486 ± 0.23 | -1.78 ± 0.21 |
| UGUUAGCAAUAUUACGCCAA | -1.4 ± 0.23 | -1.32 ± 0.19 |
| AUGUAGCAAUAUUACGUGGU | -1.53 ± 0.17 | – |
| UGACAGCAAUAUUACGUGCC | -1.58 ± 0.15 | -1.3 ± 0.12 |
| GAGAAGCAAUAUUACGGAUG | -0.821 ± 0.13 | -2.5 ± 0.14 |
| UAACAGCAAUAUUACGAACG | 0.172 ± 0.11 | -0.391 ± 0.078 |

| Sequence | self-splicing fitness (ln) (37 °C) | self-splicing fitness (ln) (30 °C) |
| --- | --- | --- |
| UACAAGCAAUAUUACGAUUG | -1.8 ± 0.17 | -3.18 ± 0.17 |
| GCAGAGCAAUAUUACGGCUC | -1.99 ± 0.46 | -2.69 ± 0.37 |
| AGGGAGCAAUAUUACGACAU | -2.17 ± 0.041 | -2.607 ± 0.025 |
| UAGGAGCAAUAUUACGUGGG | -3.32 ± 0.38 | -3.17 ± 0.24 |
| GUACAGCAAUAUUACGCCAA | -1.7 ± 0.29 | – |
| GGAGAGCAAUAUUACGCGAA | -2.72 ± 0.36 | -2.02 ± 0.24 |
| UGCUAGCAAUAUUACGACUG | 0.259 ± 0.11 | 0.165 ± 0.081 |
| AAAUAGCAAUAUUACGAUAC | -2.64 ± 0.36 | -2.95 ± 0.22 |
| UUAAAGCAAUAUUACGCGCG | 0.00297 ± 0.16 | -0.058 ± 0.12 |
| AAACAGCAAUAUUACGAGGA | -1.97 ± 0.13 | -4 ± 0.26 |
| UGCAAGCAAUAUUACGAUAA | -0.087 ± 0.12 | -0.8 ± 0.1 |
| GUGGAGCAAUAUUACGUCCG | -1.01 ± 0.33 | -3.12 ± 0.33 |
| CAUCAGCAAUAUUACGAUGA | -0.687 ± 0.15 | -2.62 ± 0.24 |
| AAUAAGCAAUAUUACGCCGG | -1.07 ± 0.18 | -1.87 ± 0.13 |
| CCUCAGCAAUAUUACGCUGG | -2.41 ± 0.17 | -2.55 ± 0.12 |
| AGGAAGCAAUAUUACGUGCC | -0.175 ± 0.23 | -1.72 ± 0.22 |
| AAUUAGCAAUAUUACGUCCG | -0.444 ± 0.26 | -1.12 ± 0.18 |
| UUCAAGCAAUAUUACGGUCC | -2.3 ± 0.42 | -1.46 ± 0.25 |
| UUGAAGCAAUAUUACGGUUU | -2.69 ± 0.19 | -2.88 ± 0.11 |
| GUGUAGCAAUAUUACGAUUU | 0.0419 ± 0.25 | -1.98 ± 0.19 |
| GAAAAGCAAUAUUACGGGGG | -1.15 ± 0.17 | -3.11 ± 0.21 |
| CGGAAGCAAUAUUACGGGAU | -2.48 ± 0.25 | -3.67 ± 0.42 |
| CUGUAGCAAUAUUACGGCCU | -3.02 ± 0.34 | – |
| AUGGAGCAAUAUUACGGUCA | -0.926 ± 0.2 | -2.19 ± 0.24 |
| UUCCAGCAAUAUUACGUUUU | -2.65 ± 0.16 | -3.74 ± 0.14 |

| Sequence | self-splicing fitness (ln) (37 °C) | self-splicing fitness (ln) (30 °C) |
| --- | --- | --- |
| GACAAGCAAUAUUACGGGUA | -0.82 ± 0.069 | -0.935 ± 0.066 |
| CAGCAGCAAUAUUACGUCAA | -3.37 ± 0.3 | -2.85 ± 0.21 |
| UGAUAGCAAUAUUACGCACA | -0.216 ± 0.1 | 0.0791 ± 0.086 |
| UAGGAGCAAUAUUACGAGAG | – | -3.02 ± 0.21 |
| ACAUAGCAAUAUUACGGAUU | -1.68 ± 0.12 | -3.42 ± 0.13 |
| CUCUAGCAAUAUUACGCCGC | -3.15 ± 0.43 | – |
| GAUCAGCAAUAUUACGUAUG | -0.276 ± 0.097 | -0.935 ± 0.084 |
| CCGCAGCAAUAUUACGUCAC | -2.84 ± 0.22 | -4.14 ± 0.19 |
| CAGUAGCAAUAUUACGUCUC | -2.13 ± 0.27 | -3.93 ± 0.37 |
| AACAAGCAAUAUUACGCCCU | 0.0436 ± 0.08 | 0.18 ± 0.062 |
| AUCAAGCAAUAUUACGACAG | -1.7 ± 0.18 | -3.07 ± 0.17 |
| UACCAGCAAUAUUACGUCAG | -1.16 ± 0.11 | -0.702 ± 0.095 |
| CUUCAGCAAUAUUACGGUCU | -2.21 ± 0.2 | -2.93 ± 0.15 |
| AGUUAGCAAUAUUACGUUCG | -0.903 ± 0.1 | -1.26 ± 0.082 |
| GGUGAGCAAUAUUACGACCG | 0.778 ± 0.19 | -0.141 ± 0.11 |
| GAAGAGCAAUAUUACGAAUU | -2.21 ± 0.23 | -3.24 ± 0.18 |
| UGUCAGCAAUAUUACGCCCC | 0.0501 ± 0.3 | -0.691 ± 0.29 |
| CGUGAGCAAUAUUACGUGAG | -1.61 ± 0.097 | -0.77 ± 0.072 |
| UACGAGCAAUAUUACGCGUA | -2.35 ± 0.41 | – |
| UUAGAGCAAUAUUACGCGUA | -0.559 ± 0.13 | -1.59 ± 0.11 |
| ACGUAGCAAUAUUACGGUAC | -2.57 ± 0.3 | -3.46 ± 0.18 |
| AAAUAGCAAUAUUACGCGAU | -1.47 ± 0.14 | -3.4 ± 0.2 |
| GCUCAGCAAUAUUACGCCGA | -1.39 ± 0.34 | -2.43 ± 0.26 |
